Results on five molecules are retold here after patent publication US20220177593A1 (CELLDEX THERAPEUTICS, published 2022).

For experiment [1], the target named is T1, human Axl expressed on the surface of cells (human, UniProt P30530 26-894).
T1 construct: whole, on cells; also called huAxl; Axl on H1299 cells
T1 sequence (looked up): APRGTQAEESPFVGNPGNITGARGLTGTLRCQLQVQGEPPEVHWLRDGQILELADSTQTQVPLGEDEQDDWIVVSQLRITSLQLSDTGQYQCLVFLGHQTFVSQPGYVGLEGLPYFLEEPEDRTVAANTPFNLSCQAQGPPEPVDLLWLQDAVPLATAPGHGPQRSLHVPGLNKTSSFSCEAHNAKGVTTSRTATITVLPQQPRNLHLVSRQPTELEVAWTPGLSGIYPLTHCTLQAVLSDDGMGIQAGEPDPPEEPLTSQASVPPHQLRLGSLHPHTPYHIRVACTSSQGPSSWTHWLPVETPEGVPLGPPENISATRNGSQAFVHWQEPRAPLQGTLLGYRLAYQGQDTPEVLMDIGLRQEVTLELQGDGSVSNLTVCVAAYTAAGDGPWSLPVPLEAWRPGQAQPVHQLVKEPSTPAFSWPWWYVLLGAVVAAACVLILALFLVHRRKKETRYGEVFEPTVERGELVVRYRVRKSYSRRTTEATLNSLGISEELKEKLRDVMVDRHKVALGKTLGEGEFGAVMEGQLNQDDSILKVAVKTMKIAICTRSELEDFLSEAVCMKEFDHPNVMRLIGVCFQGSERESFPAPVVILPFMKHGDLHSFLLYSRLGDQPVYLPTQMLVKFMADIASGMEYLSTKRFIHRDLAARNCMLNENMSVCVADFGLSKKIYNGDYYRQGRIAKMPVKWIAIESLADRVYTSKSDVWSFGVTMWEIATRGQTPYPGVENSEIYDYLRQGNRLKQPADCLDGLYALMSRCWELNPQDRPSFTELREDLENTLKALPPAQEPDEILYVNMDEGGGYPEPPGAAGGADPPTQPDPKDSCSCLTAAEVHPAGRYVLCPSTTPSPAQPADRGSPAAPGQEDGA
Nature of the experiment: flow cytometry on L cells expressing human Axl. As for the experimental part: (§1) The ability of anti-Axl human antibodies to bind to Axl on cells expressing human Axl on their surface was investigated by flow cytometry as follows: Purified antibodies were incubated with either L cells expressing human Axl on their surface or H1299 cells at room temperature on a plate shaker. After 20 minutes, the cells were washed with PBS containing 0.1% BSA and 0.05% NaN₃ (PBA), and the bound antibodies were detected by incubating the cells with a phycoerythrin (PE)-labeled goat anti-human IgG Fc-specific probe. The excess probe was washed from the cells with PBA and the cell-associated fluorescence was determined by analysis using a FACSCanto II™ instrument (BD Biosciences, NJ, USA) according to the manufacturer's directions.
On the technique in general: Flow cytometry measures light scatter and fluorescence of single cells or particles in a stream.

In experiment [2] the target is T2, recombinant human Axl-msFc (human, UniProt P30530 26-449, limits assumed).
T2 construct: also called soluble human Axl-msFc; huAxl; not shown: mouse Fc (msFc)
T2 sequence (looked up): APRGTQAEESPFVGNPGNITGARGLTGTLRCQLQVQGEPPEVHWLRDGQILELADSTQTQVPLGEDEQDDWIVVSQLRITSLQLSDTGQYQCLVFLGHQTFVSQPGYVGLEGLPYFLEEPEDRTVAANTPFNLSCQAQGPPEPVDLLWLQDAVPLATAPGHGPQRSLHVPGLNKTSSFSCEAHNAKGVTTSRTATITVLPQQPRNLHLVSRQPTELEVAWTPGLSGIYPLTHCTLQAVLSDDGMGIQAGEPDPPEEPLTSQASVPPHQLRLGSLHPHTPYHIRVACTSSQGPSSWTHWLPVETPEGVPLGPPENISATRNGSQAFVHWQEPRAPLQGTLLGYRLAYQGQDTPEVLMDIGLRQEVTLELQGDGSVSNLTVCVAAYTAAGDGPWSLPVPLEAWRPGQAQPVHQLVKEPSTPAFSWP
The experiment is described as follows: ELISA, plates coated with recombinant human Axl-msFc. As for the experimental part:
Binding of Ab301 and four humanized antibody subclones to human Axl was determined by ELISA using the following protocol: Microtiter plates were coated with recombinant human Axl-msFc, in phosphate-buffered saline (PBS), and then blocked with 5% bovine serum albumin (BSA) in PBS. Protein A purified human monoclonal antibodies and an isotype control were added at various concentrations and incubated at 37° C. The plates were washed with PBS/Tween and then incubated with a goat-anti-human IgG Fc-specific polyclonal reagent conjugated to horseradish peroxidase (HRP) at 37° C. After washing, the plates were developed with HRP substrate, and analyzed at OD 450-650 using a microtiter plate reader.
On the technique in general: An ELISA detects its analyte on a solid surface through an enzyme-linked reagent.

The target in experiment [3] is T3, Domain 1 (Ig-like domain 1) of the human Axl extracellular domain (human, UniProt P30530 34-137).
T3 construct: The tag is not described; also called D1; Domain 1 of the Axl-ECD alone
Nature of the experiment: ELISA on purified Axl domains coated on plates, Ab301 at 5 ug/mL. As for the experimental part: (§2) Human Axl domains (D1-D4) of the Axl extracellular domain (Axl-ECD) were expressed in Exi293 cells, purified by nickel affinity chromatography and buffer exchanged to PBS. […] Ab301 was added at 5 μg/mL for 1 hour at room temperature, washed, and subsequently incubated with an HRP- conjugated goat anti-human antibody (Jackson Immunoresearch). Plates were washed and incubated with TMB (Pierce Biotechnology).

Experiment [4] deals with T4, purified extracellular domain of human Axl (human, UniProt P30530 26-451).
T4 construct: extracellular domain; also called human Axl-ECD; Axl-ECD
T4 sequence (looked up): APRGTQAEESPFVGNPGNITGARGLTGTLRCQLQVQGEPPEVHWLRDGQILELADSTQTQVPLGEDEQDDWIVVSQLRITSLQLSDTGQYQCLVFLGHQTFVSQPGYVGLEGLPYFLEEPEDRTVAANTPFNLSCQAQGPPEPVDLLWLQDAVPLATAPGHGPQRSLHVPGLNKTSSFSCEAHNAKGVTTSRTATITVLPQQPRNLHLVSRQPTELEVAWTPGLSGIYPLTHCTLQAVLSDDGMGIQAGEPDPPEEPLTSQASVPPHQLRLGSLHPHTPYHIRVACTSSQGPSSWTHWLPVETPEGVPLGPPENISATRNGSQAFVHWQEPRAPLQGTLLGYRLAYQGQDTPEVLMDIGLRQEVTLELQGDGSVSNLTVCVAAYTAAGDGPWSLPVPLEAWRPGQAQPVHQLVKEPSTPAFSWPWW
The description is as above. As for the experimental part: as §2

In experiment [5] the target is T5, purified extracellular domain of human MerTK (human, UniProt Q12866 21-505).
T5 construct: extracellular domain; also called human MerTK-ECD
T5 sequence (looked up): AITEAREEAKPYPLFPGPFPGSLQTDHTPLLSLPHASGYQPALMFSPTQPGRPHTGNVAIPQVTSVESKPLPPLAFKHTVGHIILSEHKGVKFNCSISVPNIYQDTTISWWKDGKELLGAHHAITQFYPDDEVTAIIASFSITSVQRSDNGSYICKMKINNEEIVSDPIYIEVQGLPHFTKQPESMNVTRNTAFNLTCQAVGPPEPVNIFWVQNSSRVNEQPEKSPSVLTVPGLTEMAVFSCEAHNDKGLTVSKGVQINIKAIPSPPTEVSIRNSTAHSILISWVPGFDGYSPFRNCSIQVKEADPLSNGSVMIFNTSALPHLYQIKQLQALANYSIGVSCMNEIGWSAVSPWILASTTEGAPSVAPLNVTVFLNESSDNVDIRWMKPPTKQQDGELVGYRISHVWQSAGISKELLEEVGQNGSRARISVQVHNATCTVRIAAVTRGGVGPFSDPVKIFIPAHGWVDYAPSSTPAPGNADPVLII
Nature of the experiment: ELISA, plates coated with 100 ng purified extracellular domain, titration of Ab301. On the procedure: Binding of Ab301 to human Axl extracellular domain and its lack of binding to human MerTK extracellular domain was determined using the following protocol: Nunc MaxiSorb™ plates (Thermo Fisher Scientific) were coated with 100 ng of the purified extracellular domain of human Axl or human MerTK in […] borate buffer, overnight at 4° C. Plates were washed and blocked for 1 hour at room temperature with Tris-buffered saline (TBS) with 1% BSA. A titration of Ab301 was added to the coated plates for 1 hour at room temperature, followed by washing and incubation with an HRP-conjugated goat anti-human antibody (Jackson Immunoresearch) for 1 hour at room temperature. Washed plates were incubated with 3,3′,5,5′-Tetramethylbenzidine (TMB) substrate (Thermo Fisher Scientific) and read using a Biotek® plate reader. Data are plotted as the optical density at 450 nm (Abs450) as a function of the log-transformed molar concentration of Ab301, and fit to a 4-parameter binding curve using GraphPad Prism™.

The target in experiment [6] is T1, human Axl expressed on the surface of …. Nature of the experiment: flow cytometry on H1299 cells. As for the experimental part:
as §1

B1: Ab301 (antibody, human IgG1, V domains shown)
VH: EVKLEASGGGLVQPGMSVKLSCTTSGFTFSDYWMEWVRQAPGKGLEWVAEIRNKVNNYATYYGKSVKGRFTISRDDSKSIVYLQMNSIRSEDTGIYYCNTLRLFAYWGQGTLVTVSA
VL: DIVMTQAPLSISVTPGESPSMSCRSSKSLLHRNGITYVYWYLQKPGKSPQLLIYRMSTLASGVPDRFSGSGSETDFTLKINKVEAEDVGIYYCGQLLENPYTFGAGTRLEIK
notes: also called anti-Axl antibody Ab301
For B1, the binding result is “binds” in experiment [1]; “binds” in experiment [2]; “binds” in experiment [3]; “binds” in experiment [4]; “no binding” in experiment [5].

B2: Ab302 (antibody, V domains shown)
VH: EVQLVESGGGLVKPGGSLKLSCAASGFTFSDYWMEWVRQAPGKGLEWVAEIRNKVNNYATYYGKSVKGRFTISRDDSKNTLYLQMNSLKTEDTAVYYCNTLRLFAYWGQGTLVTVSS
VL: DIQMTQSPSSLSASVGDRVTITCRSSKSLLHRQGITYVYWYQQKPGKVPKLLIYRMSTLASGVPSRFSGSGSGTDFTLTISSLQPEDVATYYCGQLLENPYTFGQGTKLEIK
notes: Humanized
For the molecule B2, the binding result in experiment [6] and in experiment [2] was “binds” each time.

B3: Ab304 (antibody, V domains shown)
VH: EVQLVESGGGLVQPGGSLRLSCAASGFTFSDYWMEWVRQAPGKGLEWVGEIRNKVNNYATYYGKSVKGRFTISRDESKNSLYLQMNSLKTEDTAVYYCNTLRLFAYWGQGTTVTVSS
VL: DIQMTQSPSSLSASVGDRVTITCRSSKSLLHRQGITYVYWYQQKPGKVPKLLIYRMSTLASGVPSRFSGSGSGTDFTLTISSLQPEDVATYYCGQLLENPYTFGQGTKLEIK
notes: Humanized
With B3, the binding result in experiment [6] and in experiment [2] was “binds” in each case.

B4: Ab303 (antibody, V domains shown)
VH: EVQLVESGGGVVQPGRSLRLSCAASGFTFSDYWMEWVRQAPGKGLEWVAEIRNKVNNYATYYGKSVKGRFTISRDNSKNTLYLQMNSLRAEDTAVYYCNTLRLFAYWGQGTLVTVSS
VL: DIQMTQSPSSLSASVGDRVTITCRSSKSLLHRQGITYVYWYQQKPGKVPKLLIYRMSTLASGVPSRFSGSGSGTDFTLTISSLQPEDVATYYCGQLLENPYTFGQGTKLEIK
notes: Humanized
With B4, the binding result in experiment [6] and in experiment [2] was “binds” each time.

B5: Ab305 (antibody, V domains shown)
VH: EVQLVESGGGLVQPGRSLRLSCTASGFTFSDYWMEWVRQAPGKGLEWVGEIRNKVNNYATYYGKSVKGRFTISRDDSKSIAYLQMNSLKTEDTAVYYCNTLRLFAYWGQGTLVTVSA
VL: DIQMTQSPSSLSASVGDRVTITCRSSKSLLHRQGITYVYWYQQKPGKVPKLLIYRMSTLASGVPSRFSGSGSGTDFTLTISSLQPEDVATYYCGQLLENPYTFGQGTKLEIK
notes: Humanized
Regarding B5, the binding result in experiment [6] and in experiment [2] was “binds” throughout.
